According to patent US20230399608A1, “PROCESS FOR ESTABLISHING A HUMAN TESTICULAR TISSUE CULTURE SYSTEM” (PATERNA BIOSCIENCES INC., priority 2021, published 2023):

B1: WNT-1: ligand of RYK/FZD3/FZD7/FZD1/ROR2/LRP6 (protein, UniProt P04628 28-370, looked up)
Proto-oncogene Wnt-1: ANSSGRWWGIVNVASSTNLLTDSKSLQLVLEPSLQLLSRKQRRLIRQNPGILHSVSGGLQSAVRECKWQFRNRRWNCPTAPGPHLFGKIVNRGCRETAFIFAITSAGVTHSVARSCSEGSIESCTCDYRRRGPGGPDWHWGGCSDNIDFGRLFGREFVDSGEKGRDLRFLMNLHNNEAGRTTVFSEMRQECKCHGMSGSCTVRTCWMRLPTLRAVGDVLRDRFDGASRVLYGNRGSNRASRAELLRLEPEDPAHKPPSPHDLVYFEKSPNFCTYSGRLGTAGTAGRACNSSSPALDGCELLCCGRGHRTRTQRVTERCNCTFHWCCHVSCRNCTHTRVLHECL
B2: rh Midkine Protein: ligand of GPC2 (protein, UniProt P21741 21-143, looked up)
Midkine: VAKKKDKVKKGGPGSECAEWAWGPCTPSSKDCGVGFREGTCGAQTQRIRCRVPCNWKKEFGADCKYKFENWGACDGGTGTKVRQGTLKKARYNAQCQETIRVTKPCTPKTKAKAKAKKGKGKD
B3: Artemin (ARTN): ligand of GFRA1/GFRA2/RET/GFRA3 (protein, UniProt Q5T4W7 108-220, looked up)
Artemin: AGGPGSRARAAGARGCRLRSQLVPVRALGLGHRSDELVRFRFCSGSCRRARSPHDLSLASLLGAGALRPPPGSRPVSQPCCRPTRYEAVSFMDVNSTWRTVDRLSATACGCLG
B4: rh MIF: ligand of CXCR4/CD74 (protein, UniProt P14174 2-115, looked up)
Macrophage migration …: PMFIVNTNVPRASVPDGFLSELTQQLAQATGKPPQYIAVHVVPDQLMAFGGSSEPCALCSLHSIGKIGGAQNRSYSKLLCGLLAERLRISPDRVYINYYDMNAANVGWNNSTFA
B5: rh HB-EGF: ligand of CD9 (protein, UniProt Q99075 63-148, looked up)
Heparin-binding EGF-like …: DLQEADLDLLRVTLSSKPQALATPNKEEHGKRKKKGKGLGKKRDPCLRKYKDFCIHGECKYVKELRAPSCICHPGYHGERCHGLSL
B6: GDF11/BMP11: ligand of BMPR1B/BMPR1A/BMPR2/ACVR2B/ACVR1B/ACVR2A (protein, UniProt O95390 299-407, looked up)
Growth/differentiation factor …: NLGLDCDEHSSESRCCRYPLTVDFEAFGWDWIIAPKRYKANYCSGQCEYMFMQKYPHTHLVQQANPRGSAGPCCTPTKMSPINMLYFNDKQQIIYGKIPGMVVDRCGCS
B7: BMP8b: ligand of BMPR1B/BMPR1A/BMPR2 (protein, UniProt P34820 264-402, looked up)
Bone morphogenetic protein 8B: AVRPLRRRQPKKSNELPQANRLPGIFDDVHGSHGRQVCRRHELYVSFQDLGWLDWVIAPQGYSAYYCEGECSFPLDSCMNATNHAILQSLVHLMMPDAVPKACCAPTKLSATSVLYYDSSNNVILRKHRNMVVKACGCH
B8: DLK2: ligand of NOTCH1 (protein, UniProt Q6UY11 27-383, looked up)
Protein delta homolog 2: DDCSSHCDLAHGCCAPDGSCRCDPGWEGLHCERCVRMPGCQHGTCHQPWQCICHSGWAGKFCDKDEHICTTQSPCQNGGQCMYDGGGEYHCVCLPGFHGRDCERKAGPCEQAGSPCRNGGQCQDDQGFALNFTCRCLVGFVGARCEVNVDDCLMRPCANGATCLDGINRFSCLCPEGFAGRFCTINLDDCASRPCQRGARCRDRVHDFDCLCPSGYGGKTCELVLPVPDPPTTVDTPLGPTSAVVVPATGPAPHSAGAGLLRISVKEVVRRQEAGLGEPSLVALVVFGALTAALVLATVLLTLRAWRRGVCPPGPCCYPAPHYAPACQDQECQVSMLPAGLPLPRDLPPEPGKTTAL
B9: WNT-3A: ligand of RYK/FZD3/FZD7/FZD1/LRP6 (protein, UniProt P56704 19-352, looked up)
Protein Wnt-3a: SYPIWWSLAVGPQYSSLGSQPILCASIPGLVPKQLRFCRNYVEIMPSVAEGIKIGIQECQHQFRGRRWNCTTVHDSLAIFGPVLDKATRESAFVHAIASAGVAFAVTRSCAEGTAAICGCSSRHQGSPGKGWKWGGCSEDIEFGGMVSREFADARENRPDARSAMNRHNNEAGRQAIASHMHLKCKCHGLSGSCEVKTCWWSQPDFRAIGDFLKDKYDSASEMVVEKHRESRGWVETLRPRYTYFKVPTERDLVYYEASPNFCEPNPETGSFGTRDRTCNVSSHGIDGCDLLCCGRGHNARAERRREKCRCVFHWCCYVSCQECTRVYDVHTCK
B10: GDF6/BMP13: ligand of BMPR1B/BMPR1A/BMPR2 (protein, UniProt Q6KF10 336-455, looked up)
Growth/differentiation factor …: TAFASRHGKRHGKKSRLRCSKKPLHVNFKELGWDDWIIAPLEYEAYHCEGVCDFPLRSHLEPTNHAIIQTLMNSMDPGSTPPSCCVPTKLTPISILYIDAGNNVVYKQYEDMVVESCGCR
B11: GDNF: recombinant human glial cell line-derived neurotrophic factor (protein, UniProt P39905 78-211, looked up)
Glial cell line-derived …: SPDKQMAVLPRRERNRQAAAANPENSRGKGRRGQRGKNRGCVLTAIHLNVTDLGLGYETKEELIFRYCSGSCDAAETTYDKILKNLSRNRRLVSDKVGQACCRPIAFDDDLSFLDDNLVYHILRKHSAKRCGCI
B12: Neurturin (NRTN): ligand of GFRA1/GFRA2/RET/GFRA3 (protein, UniProt Q99748 96-197, looked up)
Neurturin: ARLGARPCGLRELEVRVSELGLGYASDETVLFRYCAGACEAAARVYDLGLRRLRQRRRLRRERVRAQPCCRPTAYEDEVSFLDAHSRYHTVHELSARECACV
B13: rh ADAM10: ligand of CADM1/TSPAN14/TSPAN15/TSPAN12 (protein, UniProt O14672 214-748, looked up)
Disintegrin and …: TTSAEKNTCQLYIQTDHLFFKYYGTREAVIAQISSHVKAIDTIYQTTDFSGIRNISFMVKRIRINTTADEKDPTNPFRFPNIGVEKFLELNSEQNHDDYCLAYVFTDRDFDDGVLGLAWVGAPSGSSGGICEKSKLYSDGKKKSLNTGIITVQNYGSHVPPKVSHITFAHEVGHNFGSPHDSGTECTPGESKNLGQKENGNYIMYARATSGDKLNNNKFSLCSIRNISQVLEKKRNNCFVESGQPICGNGMVEQGEECDCGYSDQCKDECCFDANQPEGRKCKLKPGKQCSPSQGPCCTAQCAFKSKSEKCRDDSDCAREGICNGFTALCPASDPKPNFTDCNRHTQVCINGQCAGSICEKYGLEECTCASSDGKDDKELCHVCCMKKMDPSTCASTGSVQWSRHFSGRTITLQPGSPCNDFRGYCDVFMRCRLVDADGPLARLKKAIFSPELYENIAEWIVAHWWAVLLMGIALIMLMAGFIKICSVHTPSSNPKLPPPKPLPGTLKRRRPPQPIQQPQRQRPRESYQMGHMRR
B14: GDF9: ligand of ACVR2A/BMPR1B/BMPR1A/BMPR2/TGFBR1 (protein, UniProt O60383 320-454, looked up)
Growth/differentiation factor …: GQETVSSELKKPLGPASFNLSEYFRQFLLPQNECELHDFRLSFSQLKWDNWIVAPHRYNPRYCKGDCPRAVGHRYGSPVHTMVQNIIYEKLDSSVPRPSCVPAKYSPLSVLTIEPDGSIAYKEYEDMIATKCTCR
B15: CNTN2: ligand of CNTNAP2 (protein, UniProt Q02246 31-1012, looked up)
Contactin-2: SQTTFGPVFEDQPLSVLFPEESTEEQVLLACRARASPPATYRWKMNGTEMKLEPGSRHQLVGGNLVIMNPTKAQDAGVYQCLASNPVGTVVSREAILRFGFLQEFSKEERDPVKAHEGWGVMLPCNPPAHYPGLSYRWLLNEFPNFIPTDGRHFVSQTTGNLYIARTNASDLGNYSCLATSHMDFSTKSVFSKFAQLNLAAEDTRLFAPSIKARFPAETYALVGQQVTLECFAFGNPVPRIKWRKVDGSLSPQWTTAEPTLQIPSVSFEDEGTYECEAENSKGRDTVQGRIIVQAQPEWLKVISDTEADIGSNLRWGCAAAGKPRPTVRWLRNGEPLASQNRVEVLAGDLRFSKLSLEDSGMYQCVAENKHGTIYASAELAVQALAPDFRLNPVRRLIPAARGGEILIPCQPRAAPKAVVLWSKGTEILVNSSRVTVTPDGTLIIRNISRSDEGKYTCFAENFMGKANSTGILSVRDATKITLAPSSADINLGDNLTLQCHASHDPTMDLTFTWTLDDFPIDFDKPGGHYRRTNVKETIGDLTILNAQLRHGGKYTCMAQTVVDSASKEATVLVRGPPGPPGGVVVRDIGDTTIQLSWSRGFDNHSPIAKYTLQARTPPAGKWKQVRTNPANIEGNAETAQVLGLTPWMDYEFRVIASNILGTGEPSGPSSKIRTREAAPSVAPSGLSGGGGAPGELIVNWTPMSREYQNGDGFGYLLSFRRQGSTHWQTARVPGADAQYFVYSNESVRPYTPFEVKIRSYNRRGDGPESLTALVYSAEEEPRVAPTKVWAKGVSSSEMNVTWEPVQQDMNGILLGYEIRYWKAGDKEAAADRVRTAGLDTSARVSGLHPNTKYHVTVRAYNRAGTGPASPSANATTMKPPPRRPPGNISWTFSSSSLSIKWDPVVPFRNESAVTGYKMLYQNDLHLTPTLHLTGKNWIEIPVPEDIGHALVQIRTTGPGGDGIPAEVHIVRNGGTSMMVEN

The molecules below were run on testicular germ cell proliferation (assay: Screen of SSC / differentiating spermatogonia receptor ligands in the iterative culture process). Details: ligand at the concentration listed in Table 5; effective to date at improving germ cell proliferation.
Type: cell-based, human
From the text: A process for identification and selection of receptor ligands capable of improving testicular germ cell proliferation was developed. The process uses expression data obtained by mining scRNA-seq data obtained from testicular tissue (FIG. 27). The process systematically prioritizes candidates for spermatogonia ligands through a series of bioinformatics analyses and filtering. The process comprises identifying and selecting potential ligands based on their receptor expression in State 1 SSCs (active stem cells) and State 2/3 differentiating spermatogonia (differentiated germ cells with strong proliferation ability), or any combination thereof.
More specifically, the approach was based on the single-cell RNA sequencing transcriptome profile of the adult human testis atlas (Guo, J., Grow, E. J., Mlcochova, H., Maher, G. J., Lindskog, C., Nie, X., Guo, Y., Takei, Y., Yun, J., Cai, L., et al. (2018). The adult human testis transcriptional cell atlas. Cell Research 28, 1141. 10.1038/s41422-018-0099-2; the disclosure of all of which is incorporated herein in its entirety), which provides a comprehensive characterization of cell types in the human adult testis. Pseudo-bulk RNA-seq analysis was used, which involves aggregating individual cells into groups to enhance the receptor gene expression signal on SSCs and differentiating spermatogonia. Each individual cell is assigned to its corresponding cell type cluster based and summing the expression values of all cells within each cluster to create pseudo-bulk samples.
The CellTalkDB database was used to identify receptors expressed in SSCs/differentiating spermatogonia. Specifically, the receptors whose expression in SSCs/differentiating spermatogonia ranks within the top 150 were selected, as expression levels below this point are generally low in these cell populations. […] This filtering step helps to focus on receptors that are more specific to the target cell populations. Using the CellTalkDB database, the corresponding ligands for the selected receptors were then identified. The ligand candidates were prioritized based on their expression levels in the testes, and their known functionality.
The identified ligands were then used in the iterative process of the instant disclosure for identifying culture conditions that support testicular germ cell proliferation in vitro to refine the culture conditions.

Row | Molecule | Effective
1 | C[C@]12CC[C@H]3[C@@H](CCC4=CC(=O)CC[C@@]43C)[C@@H]1CC[C@@H]2O [Testosterone, reference compound] | Yes
2 | FGF2: basic fibroblast growth factor | Yes
3 | rh CXCL12: chemokine; ligand of CXCR4 | No
4 | rh LIF: leukemia inhibitory factor; ligand of IL6ST/LIFR | Yes
5 | rh Secretin: ligand of VIPR2 | No
6 | rh beta-NGF: ligand of KIDINS220 | Yes
7 | B1 | No
8 | B2 | Yes
9 | B3 | No
10 | B4 | Yes
11 | B5 | Yes
12 | B6 | No
13 | B7 | No
14 | B8 | No
15 | B9 | Yes
16 | B10 | No
17 | B11 | Yes
18 | B12 | Yes
19 | B13 | No
20 | B14 | No
21 | B15 | No
